Experiment [1] has as its target T1, GST-fusion protein containing the N-terminal domain of Dsh (Drosophila, UniProt P51140 1-166).
T1 construct: domain: N-terminal; not shown: glutathione-S-transferase (GST) fusion partner
T1 sequence (looked up): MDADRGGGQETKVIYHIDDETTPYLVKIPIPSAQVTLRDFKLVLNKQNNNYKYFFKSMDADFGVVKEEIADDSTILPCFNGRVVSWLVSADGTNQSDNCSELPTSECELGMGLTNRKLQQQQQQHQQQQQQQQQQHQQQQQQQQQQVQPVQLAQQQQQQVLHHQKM
Nature of the experiment: GST-fusion pull-down from Drosophila embryo lysates, in vitro kinase assay. Here is the method: (§1) Dsh is known to be progressively phosphorylated in Drosophila during the stages of embryonic development known to require Wnt. The stoichiometry of this phosphorylation is high and supports the importance of this reaction. To identify the kinase that phosphorylates Dsh, various regions of Dsh were tested for their ability to physically interact with this kinase. Equal amounts of lysates prepared from staged Drosophila embryos were blotted with anti-Dsh antibody. Only the GST-fusion protein containing the middle (DM), but not the N-terminal or C-terminal domain of Dsh, interacted with this kinase activity from Drosophila embryos. The Dsh- associated kinase activity, which was precipitated with GST-DM, increased as Dsh became progressively phosphoylated during development.
(§2) To perform the kinase assay, the embryos or cells were lysed in lysis buffer (50 mM HEPES [pH 7.6], 100 mM NaCl, 0.5% Nonidet P-40, 10 mM NaF, 5 mM NaPPi, 1.5 mM MgCl₂, 1 mM EGTA, 10% glycerol, and protease inhibitors). Cleared cell lysates were incubated with GST fusion proteins immobilized on glutathione agarose beads for two to four hours at 4° C. The glutathione beads were washed three times with lysis buffer and once with kinase buffer (50 mM Tris [pH7.6], 10 mM MgCl₂). […]

Experiment [2] deals with T2, GST-fusion protein containing the C-terminal domain of Dsh (Drosophila, UniProt P51140 395-623).
T2 construct: domain: C-terminal; not shown: glutathione-S-transferase (GST) fusion partner
T2 sequence (looked up): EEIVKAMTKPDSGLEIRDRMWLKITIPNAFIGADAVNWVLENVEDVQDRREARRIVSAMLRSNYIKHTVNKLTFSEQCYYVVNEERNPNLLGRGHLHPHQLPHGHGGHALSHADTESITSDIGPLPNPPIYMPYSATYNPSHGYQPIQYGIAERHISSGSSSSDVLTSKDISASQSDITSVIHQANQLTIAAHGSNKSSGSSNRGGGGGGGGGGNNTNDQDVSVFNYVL
The description is as above. Here is the method: as §1, §2

In experiment [3] the target is T3, Dishevelled (Dsh) protein, Drosophila (Drosophila, UniProt P51140 1-623, progressively phosphorylated during development (sites not given)).
T3 construct: also called endogenous Dsh
T3 sequence (looked up): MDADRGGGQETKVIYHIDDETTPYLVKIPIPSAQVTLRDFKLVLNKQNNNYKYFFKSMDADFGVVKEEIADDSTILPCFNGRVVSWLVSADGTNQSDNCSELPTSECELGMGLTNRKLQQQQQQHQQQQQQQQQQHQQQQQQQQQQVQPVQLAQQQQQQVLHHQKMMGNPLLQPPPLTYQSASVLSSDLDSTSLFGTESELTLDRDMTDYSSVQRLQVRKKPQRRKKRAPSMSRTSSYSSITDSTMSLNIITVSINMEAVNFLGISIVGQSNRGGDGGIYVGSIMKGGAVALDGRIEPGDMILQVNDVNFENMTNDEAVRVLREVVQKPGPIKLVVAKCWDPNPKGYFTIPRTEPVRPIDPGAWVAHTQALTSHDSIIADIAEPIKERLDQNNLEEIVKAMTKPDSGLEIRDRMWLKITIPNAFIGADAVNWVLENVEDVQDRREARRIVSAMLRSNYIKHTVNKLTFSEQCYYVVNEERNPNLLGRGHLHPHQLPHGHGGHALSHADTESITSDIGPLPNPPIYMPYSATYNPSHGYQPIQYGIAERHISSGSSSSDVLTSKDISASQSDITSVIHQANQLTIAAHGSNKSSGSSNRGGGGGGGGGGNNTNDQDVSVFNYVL
Nature of the experiment: immunoprecipitation of Dsh from Drosophila embryos, in vitro kinase assay; the kinase was eluted with 700 mM NaCl. Here is the method: To clone the Dsh-associated kinase, Dsh was immunoprecipitated from Drosophila embryos with preimmune and affinity-purified immune serum, and subjected to an in vitro kinase assay or blotted with anti-Dsh serum. Dsh immunoprecipitates were washed with 700 mM NaCl to elute the associated kinase. The eluted kinase was recovered after dilution by precipitation with GST-fusion proteins. The kinase was purified 60,000-fold from Drosophila embryos and several peptide sequences were then used to clone the cDNA of this kinase. After screening a Drosophila embryo cDNA library with oligo probes designed based on peptide sequences, the cDNA that encodes the kinase was cloned. The cDNA clones encode a protein kinase that is homologous to the C. elegans protein PAR-1 (85% identity in the kinase domain and 42% identity overall). […] Importantly, the kinase activity that was precipitated using GST-DM increased as Dsh became progressively phosphorylated during development. The kinase activity was also present in Dsh immunoprecipitates.
To perform the kinase assay, the embryos or cells were lysed in lysis buffer (50 mM HEPES [pH 7.6], 100 mM NaCl, 0.5% Nonidet P-40, 10 mM NaF, 5 mM NaPPi, 1.5 mM MgCl₂, 1 mM EGTA, 10% glycerol, and protease inhibitors). Cleared cell lysates were incubated with GST fusion proteins immobilized on glutathione agarose beads for two to four hours at 4° C. […]

B1: Drosophila PAR-1 (dPAR-1), the Dishevelled-associated kinase (enzyme)
chain: MSTAMRTTLQSVPEALPADSVSNGTASNVAAPAAPVSSATNAVPPLAAVSSTTATYATNSISTSSHSVKDQQQQQQQQQHDSANANIVSLPPTTTPVANTNTMMPIVTSSNSATSNSTAATPTPASGAAATGGVGSVSQGPATVSASAANTNHSHQHSHQHHHHVANNMTTDGARLSSNNSAVVASSAINHHHHHTPGSGVAPTVNKNVLSTHSAHPSAIKQRTSSAKGSPNMQMRSSAPMRWRATEEHIGKYKLIKTIGKGNFAKVKLAKHLPTGKEVAIKIIDKTQLNPGSLQKLFREVRIMKMLDHPNIVKLFQVIETEKTLYLIMEYASGGEVFDYLVLHGRMKEKEARVKFRQIVSAVQYCHQKRIIHRDLKAENLLLDSELNIKIADFGFSNEFTPGSKLDTFCGSPPYAAPELFQGKKYDGPEVDVWSLGVILYTLVSGSLPFDGSTLRELRERVLRGKYRIPFYMSTDCENLLRKFLVLNPAKRASLETIMGDKWMNMGFEEDELKPYIEPKADLADPKRIEALVAMGYNRSEIEASLSQVRYDDVFATYLLLGRKSTDPESDGSRSGSSLSLRNISGNDAGANAGSASVQSPTHRGVHRSISASSTKPSRRASSGAETLRVGPTNAAATVAAATGAVGAVNPSNNYNAAGSAADRASVGSNFKRQNTIDSATIKENTARLAAQNQRPASATQKMLTTADTTLNSPAKPRTATKYDPTNGNRTVSGTSGIIPRRSTTLYEKTSSTEKTNVIPAETKMASAVKSSRHFPRNVPSRSTFHSGQTRARNNTALEYSGTSGASGDSSHPGRMSFFSKLSSRFSKRPNQ
notes: Endogenous kinase from Drosophila embryo or Clone-8 cell lysates; In-gel bands of 110 kDa, 64 kDa and 130 kDa (minor) are said to be the kinase and its major fragment; also called Dsh-associated kinase; the kinase
As for B1, the binding result in experiment [1] was “no binding”; in experiment [2] it was “no binding”; in experiment [3], “binds”.

For the origin of these results see patent US20020115167A1 (published 2002).
